Measurements as given in publication PMC11472053, “Structural basis of DNA recognition by BEN domain proteins reveals a role for oligomerization in unmethylated DNA selection by BANP” (Nucleic Acids Research, 2024).

What was measured:
BANP BEN WT (human) = target: T1, BANP BEN WT (human) (UniProt Q8N9N5); assay: ITC; conditions: 5-methyl-C at positions 5 and 7 of each strand (fully methylated); ITC: 20 mM Tris pH 7.5, 200 mM NaCl, 2 mM beta-mercaptoethanol, 20 C; EMSA: 20 mM Tris pH 7.0, 200 mM NaCl, 2 mM DTT, 4 C, 1.2% agarose in TAE
T1 sequence: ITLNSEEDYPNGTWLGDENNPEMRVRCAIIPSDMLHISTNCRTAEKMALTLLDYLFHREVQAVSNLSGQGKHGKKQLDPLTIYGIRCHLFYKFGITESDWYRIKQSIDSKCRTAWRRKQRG

BANP ΔCC = target: T2, BANP ΔCC (human, UniProt Q8N9N5 90-519); assay: ITC; ITC: 20 mM Tris pH 7.5, 200 mM NaCl, 2 mM beta-mercaptoethanol, 20 C; EMSA: 20 mM Tris pH 7.0, 200 mM NaCl, 2 mM DTT, 4 C, 1.2% agarose in TAE; conditions: protein: recombinant; tags: His-SUMO or His-MBP, cleaved; blunt, self-complementary
T2 sequence: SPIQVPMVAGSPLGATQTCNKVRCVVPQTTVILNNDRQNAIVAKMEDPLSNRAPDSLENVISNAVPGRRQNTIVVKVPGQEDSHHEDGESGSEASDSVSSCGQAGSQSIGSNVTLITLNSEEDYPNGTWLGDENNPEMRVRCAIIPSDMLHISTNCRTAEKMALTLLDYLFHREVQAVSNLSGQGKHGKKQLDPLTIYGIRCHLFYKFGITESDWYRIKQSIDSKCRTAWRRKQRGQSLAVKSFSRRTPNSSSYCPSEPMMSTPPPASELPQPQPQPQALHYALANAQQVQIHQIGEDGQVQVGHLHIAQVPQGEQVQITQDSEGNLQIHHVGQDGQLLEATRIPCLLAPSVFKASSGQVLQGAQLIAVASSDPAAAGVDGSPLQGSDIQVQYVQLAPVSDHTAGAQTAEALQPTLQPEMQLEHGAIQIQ

BANP CC-BEN (ΔDBD) = target: T3, BANP CC-BEN (ΔDBD) (human, UniProt Q8N9N5 1-360); assay: as above; conditions: protein: recombinant; tags: His-SUMO or His-MBP, cleaved; blunt, self-complementary
T3 sequence: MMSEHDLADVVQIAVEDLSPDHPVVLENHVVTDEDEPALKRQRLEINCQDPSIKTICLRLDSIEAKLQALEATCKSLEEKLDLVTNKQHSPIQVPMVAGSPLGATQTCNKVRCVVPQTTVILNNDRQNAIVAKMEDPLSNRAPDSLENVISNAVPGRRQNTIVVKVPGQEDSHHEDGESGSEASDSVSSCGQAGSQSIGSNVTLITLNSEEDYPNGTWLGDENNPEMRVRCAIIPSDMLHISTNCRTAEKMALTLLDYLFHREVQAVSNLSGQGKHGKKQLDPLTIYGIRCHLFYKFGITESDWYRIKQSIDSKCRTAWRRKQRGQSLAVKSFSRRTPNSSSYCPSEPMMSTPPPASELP

BANP BEN-DBD = target: T4, BANP BEN-DBD (human, UniProt Q8N9N5 205-519); assay: as above; conditions: protein: recombinant; tags: His-SUMO or His-MBP, cleaved; blunt, self-complementary
T4 sequence: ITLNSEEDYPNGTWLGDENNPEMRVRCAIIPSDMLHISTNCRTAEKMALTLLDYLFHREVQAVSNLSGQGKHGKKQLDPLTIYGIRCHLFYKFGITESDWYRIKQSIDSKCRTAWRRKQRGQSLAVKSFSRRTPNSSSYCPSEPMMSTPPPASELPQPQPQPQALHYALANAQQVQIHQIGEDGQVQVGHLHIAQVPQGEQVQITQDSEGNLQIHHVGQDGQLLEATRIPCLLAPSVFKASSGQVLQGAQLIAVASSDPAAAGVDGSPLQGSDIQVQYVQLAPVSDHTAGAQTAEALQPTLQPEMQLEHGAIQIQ

BANP full-length WT = target: T5, BANP full-length WT (human, UniProt Q8N9N5 1-519); assay: as above; conditions: protein: recombinant; tags: His-SUMO or His-MBP, cleaved; chain copies: 4; blunt, self-complementary
T5 sequence: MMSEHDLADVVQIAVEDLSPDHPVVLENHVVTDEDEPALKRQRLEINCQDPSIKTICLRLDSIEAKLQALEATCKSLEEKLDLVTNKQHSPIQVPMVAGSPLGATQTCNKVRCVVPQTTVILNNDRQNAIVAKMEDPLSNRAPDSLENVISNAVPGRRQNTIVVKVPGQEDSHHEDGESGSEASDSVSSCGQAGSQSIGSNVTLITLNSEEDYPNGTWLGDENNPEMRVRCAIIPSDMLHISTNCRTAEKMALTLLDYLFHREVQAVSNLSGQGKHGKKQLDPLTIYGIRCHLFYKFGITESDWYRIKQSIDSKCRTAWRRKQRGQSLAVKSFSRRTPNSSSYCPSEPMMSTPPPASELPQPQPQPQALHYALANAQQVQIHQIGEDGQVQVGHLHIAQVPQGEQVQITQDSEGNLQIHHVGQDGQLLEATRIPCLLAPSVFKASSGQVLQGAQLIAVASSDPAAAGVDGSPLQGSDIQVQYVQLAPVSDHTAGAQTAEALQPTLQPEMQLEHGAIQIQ

BANP BEN WT [1] = target: T6, BANP BEN WT (human, UniProt Q8N9N5 205-325); assay: EMSA; ITC: 20 mM Tris pH 7.5, 200 mM NaCl, 2 mM beta-mercaptoethanol, 20 C; EMSA: 20 mM Tris pH 7.0, 200 mM NaCl, 2 mM DTT, 4 C, 1.2% agarose in TAE; conditions: protein: recombinant; tags: His-SUMO or His-MBP, cleaved; chain copies: 2; blunt
T6 sequence: T1 sequence

NACC1 BEN WT [2] = target: T7, NACC1 BEN WT (human, UniProt Q96RE7 341-477); assay: as above; conditions: protein: recombinant; tags: His-SUMO or His-MBP, cleaved; blunt
T7 sequence: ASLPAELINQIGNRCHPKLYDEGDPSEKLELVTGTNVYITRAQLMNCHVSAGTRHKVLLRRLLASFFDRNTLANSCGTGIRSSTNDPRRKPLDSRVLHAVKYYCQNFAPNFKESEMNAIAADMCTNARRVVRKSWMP

BANP BEN WT [3] = target: T6, BANP BEN WT; assay: crystal structure; 2.6 A; PDB assignment from column order; ITC: 20 mM Tris pH 7.5, 200 mM NaCl, 2 mM beta-mercaptoethanol, 20 C; EMSA: 20 mM Tris pH 7.0, 200 mM NaCl, 2 mM DTT, 4 C, 1.2% agarose in TAE; conditions: protein: recombinant; tags: His-SUMO or His-MBP, cleaved; chain copies: 2; 12 bp, 5' overhang 1 nt (C) each strand
NACC1 BEN WT [4] = target: T7, NACC1 BEN WT; assay: crystal structure; 2.3 A; PDB assignment from column order; ITC: 20 mM Tris pH 7.5, 200 mM NaCl, 2 mM beta-mercaptoethanol, 20 C; EMSA: 20 mM Tris pH 7.0, 200 mM NaCl, 2 mM DTT, 4 C, 1.2% agarose in TAE; conditions: protein: recombinant; tags: His-SUMO or His-MBP, cleaved; 10 bp, 5' overhang 1 nt (T) each strand
[5] = target: the molecule itself; assay: cross-linking; purified full-length BANP in 20 mM HEPES pH 7.5, 200 mM NaCl, 2 mM DTT; 0.06% glutaraldehyde, on ice 10 min, quenched with Tris; then Superdex 200 10/300 GL and SDS-PAGE of the fractions

Molecule: ATCTCGCGAGAT (double strand) [12-mCGmCG]
- Kd (BANP BEN WT (human)): 5.7 µM

B1: 12-mCGmCG (dsDNA)
DNA 1: ATCTCGCGAGAT
DNA 2: ATCTCGCGAGAT
modifications: 5-methyl-C at positions 5 and 7 of each strand (fully methylated)
- binding result (BANP ΔCC): no binding
- binding result (BANP CC-BEN (ΔDBD)): no binding
- binding result (BANP BEN-DBD): no binding
- binding result (BANP full-length WT): no binding

B2: 12-AT (dsDNA)
DNA 1: TTTTATATATAA
DNA 2: TTATATATAAAA
- binding result (BANP BEN WT [1]): no binding
- binding result (NACC1 BEN WT [2]): no binding

B3: BANP crystal DNA (dsDNA)
DNA 1: CATCTCGCGAGAT
DNA 2: CATCTCGCGAGAT
- binding result (BANP BEN WT [3]): binds

B4: NACC1 crystal DNA (dsDNA)
DNA 1: TTTACATGTAA
DNA 2: TTTACATGTAA
- binding result (NACC1 BEN WT [4]): binds

B5: full-length BANP (natural protein, human, UniProt Q8N9N5 1-519, looked up)
chain: T5 sequence
notes: BANP, human, full length; also called SMAR1; source: E. coli Rosetta (DE3), purified (nickel column, HiTrap Q, gel filtration)
- stoichiometry N [5]: 4
